{"source": "patent US6518397B1", "about": "“Pharmaceuticals for modulating hormone responsiveness” (priority 1995, dated 2003)", "molecules": {"B1": {"name": "KVFFKR peptide (peptide)", "peptide": "KVFFKR", "notes": "also called 285; androgen receptor derived peptide"}, "B2": {"name": "p60 (calreticulin): 60 kDa protein, calreticulin, purified by affinity chromatography on KLGFFKR-sepharose (protein)", "chain": "EPAVYFKEQFLDGDGWTSRWIESKHKSDFGKFVLSSGKFYGDEEKDKGLQTSQDARFYALSASFEPFSNKGQTLVVQFTVKHEQNIDCGGGYVKLFPNSLDQTDMHGDSEYNIMFGPDICGPGTKKVHVIFNYKGKNVLINKDIRCKDDEFTHLYTLIVRPDNTYEVKIDNSQVESGSLEDDWDFLPPKKIKDPDASKPEDWDERAKIDDPTDSKPEDWDKPEHIPDPDAKKPEDWDEEMDGEWEPPVIQNPEYKGEWKPRQIDNPDYKGTWIHPEIDNPEYSPDPSIYAYDNFGVLGLDLWQVKSGTIFDNFLITNDEAYAEEFGNETWGVTKAAEKQMKDKQDEEQRLKEEEEDKKRKEEEEAEDKEDDEDKDEDEEDEEDKEEDEEEDVPGQAKDEL"}, "B3": {"name": "KLGFFKR synthetic peptide (peptide)", "peptide": "KLGFFKR", "notes": "Used free in solution and immobilised on sepharose; also called KLGFFKR-sepharose"}}, "key": {"[1]": {"target": "T1, DNA binding domain of recombinant rat androgen receptor (AR) / calreticulin (p60) (Homo sapiens, UniProt P27797)", "T1 construct": "endogenous in cells", "T1 sequence (P27797 18-417)": "B2 chain", "test": "Gel mobility shift (gel retardation) assay: calreticulin (p60) inhibition of AR-ARE binding and its reversal by peptides/antibody", "details": "for Reversal of p60 (calreticulin) inhibition of AR-ARE binding: peptide, antibody or IgG pre-incubated with p60", "description": "To determine whether p60 (calreticulin) could directly modulate the binding of nuclear hormone receptors to DNA via the KXFFX^1R [SEQ ID NO:1] sequence, the interaction of the DNA binding domain of recombinant androgen receptor with its hormone responsive element was analyzed by carrying out gel mobility shift assays.\n(§1) As described in Rennie et al., 1993, DNA binding domain of recombinant rat androgen receptor was prepared as a GST-fusion protein using the pGEX-3X vector and purified by glutathione-agarose affinity chromatography. p60 (calreticulin) was purified by affinity chromatography on KLGFFKR-sepharose [SEQ ID NO:7], followed by gel electrophoresis as described in detail in Rojiani et al., 1991. […] Recombinant calreticulin (GST-fusion protein) was prepared as described by Baksh and Michalak, 1991. Gel retardation assays were carried out as described by Rennie et al., 1993. To analyze the effect of p60, or recombinant calreticulin, on receptor-DNA binding activity, the AR was pre-incubated with p60 for 30 min at 4° C. To analyze the effects of synthetic peptides, anti-calreticulin antibody, and non-immune IgG on p60 inhibition of AR-ARE binding, the peptide, antibody or IgG were pre-incubated with p60 for 30 min at 4° C. The androgen receptor preparation was then added to these mixtures and further incubated for 30 min at 4° C.\nAffinity purified DNA binding domain of the recombinant rat androgen receptor (AR) was pre-incubated with or without the indicated concentrations of purified p60 at 4° C. for 30 min. After this pre-incubation the reaction mixtures were incubated with ^32P-labeled 26 base pair ARE (Rennie et al., 1993) (androgen response element), and analyzed by gel retardation assay. The sequence of the ARE used was [SEQ ID NO:28]:\nAmino acids in the KXFFX^1R [SEQ ID NO: 1] sequence were modified. Androgen receptor and calreticulin were incubated in the presence of the modified peptides and allowed to interact with an oligonucleotide containing the androgen response element (the method of this assay is described in Example 3). The interaction was analyzed by gel mobility shaft assay (FIGS. 5A-5C)."}, "[2]": {"system": "retinoic acid receptor mediated gene transcription (bRARE luciferase) in P19 cells", "test": "RARE-driven luciferase reporter in P19 cells after peptide preincubation", "assay_type": "cell-based, mouse", "details": "for Luciferase × 10^6: P19 cells, 10^-7 retinoic acid", "description": "In order to test whether a peptide based on the calreticulin-binding KXGFFKR [SEQ ID NO:30] sequence modulates retinoic acid induced gene transcription in live cells, the p19 cells were transfected with a reporter vector consisting of a retinoic acid response element fused to the luciferase gene.\nCell culture conditions: Mouse embryonic carcinoma (P19) cell, grown in 60 mm dishes in 7.5% donor calf serum, 2.5% fetal calf serum alpha MEM (Gibco/BRL) were treated with the peptides KLGFFKR [SEQ ID NO:7] or KLRFGFK [SEQ ID NO:29] for three hours or overnight for 20 hours at 37° C., 5% CO2. With few exceptions, KLXFFKR [SEQ ID NO:31] is the peptide sequence specific within the binding domain of all steroid receptors. KLRFGFK [SEQ ID NO:29] is the scrambled peptide of the above sequence. Subsequently each plate was washed four times with serum free alpha MEM to remove excess peptides and replenished with fresh serum containing media. Cells were then transfected by standard calcium phosphate precipitation method (Current Protocols in Molecular Biology 9:1) with 1 microgram bRARE in pTKluc, 1.5 microgram pRSV bgal, 3 microgram pKS (carrier) per 60 mm dish. Following a 16 hour incubation at 37° C. 5% CO2, each plate was washed two times with serum free alphaMEM and replenished with serum containing media supplement with […] retinoic acid (Sigma R2625) and 800 microgram/ml G418 (Gibco 1181-031). Following another 24 hours incubation cells were washed three times with PBS and each 60 mm dish of cells was lysed in 100 microliters of 1 % triton X100, 100 mM KPO4 pH7.8, 1 mM DTT. Cell lysates were stored at −70° C. Prior to luciferase/bgal assays, cell debris were spun out on an Eppendorf microfuge (5415C) at 4° C. full speed for 20 minutes.\nLuciferase assay: All reagents were equilibrated to room temperature and each sample was assayed independently. Ten microliters of cell lysate was incubated with 50 microliters of luciferase reagent (Promega E1483) in an Eppendorf tube. Thirty seconds later, the sample was immediately counted in a Beckman scintillation counter (LS6000IC) for one minute using an open window. Standards in the range of 0.001 nanogram to 1.0 nanogram was used to establish the linearity of the assay.\nBeta-gal assay: Assay was done in a microtitre plate (Linbro 76-232-05). Ten microliters of cell lysate were mixed with 90 microliters of bgal reagent in 88 mM phosphate buffer, 11 mM KCl, 1 mM MgCl2, 55 mM 2ME, 4.4 mM chlorophenol red b-D-galactopyranoside (BMC 884-308). Incubation period varied from 30 minutes to 2 hours at 37° C. Results were read at 570 nm in an ELISA reader (Dynatech MR5000)."}, "[3]": {"target": "T2, calreticulin as used in the gel mobility shift assays of Examples 7 and 15 (Homo sapiens (Human), UniProt P27797 18-417)", "T2 construct": "Could be m1 or m2", "T2 sequence": "B2 chain", "test": "gel mobility shift, PhosphorImager; reversal of calreticulin inhibition of RAR/RXR binding to its DNA response element; competitor RAR/RXR", "from_the_text": "(§2) This Table relates to the retinoic acid receptors (RAR/RXR) and the androgen receptor (AR). […] The data was quantified using a Phosphormager (Molecular Dynamics)."}, "[4]": {"target": "T2, calreticulin as used in the gel …", "test": "gel mobility shift, PhosphorImager; reversal of calreticulin inhibition of AR binding to its DNA response element; competitor AR", "description": "as §1, with “To analyze the effects of synthetic peptides, anti-calreticulin antibody, and non-immune IgG on p60 inhibition of AR-ARE binding, the peptide, antibody or IgG were pre-incubated with p60 for 30 min at 4° C.” left out\nas §2"}, "[5]": {"system": "AP-1", "test": "Binding of AP-1 to DNA"}, "[6]": {"target": "T2, calreticulin as used in the gel …", "test": "gel mobility shift; reversal of calreticulin inhibition of receptor-DNA binding; competitor RXR/RXR, reference RAR/RXR", "description": "(§3) Example 7 Peptides Having Differential Specificities for Disrupting Different Hormone Receptor-Calreticulin Interactions To identify peptides having different specificities, we utilized gel mobility shift assays (see Example 3) in which known concentrations of purified recombinant androgen receptor, estrogen receptor, retinoic acid receptors (RAR/RXR and RXR/RXR) (Shago et al., 1994) and vitamin D receptor (Xu et al., 1993) were incubated with known concentrations of either recombinant calreticulin, or calreticulin purified by affinity chromatography on a KLGFFKR affinity column [SEQ ID NO:7] (see Example 3) in the presence of the respective ^32P-labelled DNA response elements and known concentrations of synthetic peptides based on the KXFFX[1]R [SEQ ID NO:1] sequence. In addition to the linear peptides, some peptides were cyclized by adding cysteine residues at either ends."}, "[7]": {"target": "T2, calreticulin as used in the gel …", "test": "gel mobility shift; reversal of calreticulin inhibition of receptor-DNA binding; competitor VDR/RXR, reference RAR/RXR", "description": "as §3"}, "[8]": {"details": "overnight preincubation with 10 micromolar peptide"}, "[9]": {"details": "overnight preincubation with 50 micromolar peptide"}, "[10]": {"details": "overnight preincubation with 100 micromolar peptide"}}, "data": [{"molecule": "KLGFFKR", "values": [{"measurement": "Reversal of GST-calreticulin (recombinant calreticulin) inhibition of AR-ARE interaction", "setting": "[1]; calreticulin 2 μg, peptides at 50-fold molar excess", "value": "Reversal of this inhibition"}, {"measurement": "Reversal of p60 (calreticulin) inhibition of AR-ARE binding", "setting": "[1]", "value": "reversed"}, {"measurement": "Effect by itself on the receptor-DNA interaction", "setting": "[1]; without p60, data not shown", "value": "neither KLGFFKR peptide [SEQ ID NO:7], anti-calreticulin antibody, nor non-immune IgG by themselves had any effect"}, {"measurement": "Corrected values luc/bgal", "setting": "[2]; [8]", "value": 32.91}, {"measurement": "Luciferase × 10^6", "setting": "[2]; [8]", "value": "13 × 10^6"}, {"measurement": "Corrected values luc/bgal", "setting": "[2]; [9]", "value": 45.15}, {"measurement": "Luciferase × 10^6", "setting": "[2]; [9]", "value": "20 × 10^6"}, {"measurement": "Luciferase × 10^6", "setting": "[2]; [10]", "value": "28 × 10^6"}, {"measurement": "Luciferase activity (retinoic acid receptor mediated gene transcription), in words", "setting": "[2]; pre-incubation of P19 cells with peptide", "value": "dose-dependent increase in luciferase activity"}]}, {"molecule": "KLRFGFK [reference compound]", "values": [{"measurement": "Reversal of p60 (calreticulin) inhibition of AR-ARE binding", "setting": "[1]", "value": "much less effective"}, {"measurement": "Corrected values luc/bgal", "setting": "[2]; [8]", "value": 42.04}, {"measurement": "Luciferase × 10^6", "setting": "[2]; [8]", "value": "14 × 10^6"}, {"measurement": "Corrected values luc/bgal", "setting": "[2]; [9]", "value": 41.34}, {"measurement": "Luciferase × 10^6", "setting": "[2]; [9]", "value": "16 × 10^6"}, {"measurement": "Corrected values luc/bgal", "setting": "[2]; [10]", "value": 32.26}, {"measurement": "Luciferase × 10^6", "setting": "[2]; [10]", "value": "14 × 10^6"}]}, {"molecule": "KGFFKR (also called 409)", "note": "[KGFFKR peptide]", "values": [{"measurement": "% Reversal", "setting": "[3]", "value": 100, "unit": "%"}]}, {"molecule": "B1", "values": [{"measurement": "% Reversal", "setting": "[4]", "value": 100, "unit": "%"}]}, {"molecule": "B2", "values": [{"measurement": "Effect of protein on AR-ARE (receptor-DNA) complex formation", "setting": "[1]; protein pre-incubated with AR 30 min at 4° C.", "value": "dose-dependent inhibition in the formation of this complex"}, {"measurement": "Effect on binding of AP-1 to DNA", "setting": "[5]", "value": "did not effect the binding of AP-1 to DNA"}]}, {"molecule": "KLRFGFK (Control)", "note": "[KLRFGFK scrambled peptide]", "values": [{"measurement": "% Reversal", "setting": "[3]", "value": 34, "unit": "%"}]}, {"molecule": "B3", "values": [{"measurement": "fold potency against RXR/RXR compared to RAR/RXR", "setting": "[6]", "value": 4, "unit": "fold"}, {"measurement": "% Reversal", "setting": "[3]", "value": 100, "unit": "%"}, {"measurement": "fold potency against VDR/RXR compared to RAR/RXR", "setting": "[7]", "value": 10, "unit": "fold"}, {"measurement": "% Reversal", "setting": "[4]", "value": 62, "unit": "%"}]}, {"molecule": "KLGFFGR", "note": "[KLGFFGR peptide]", "values": [{"measurement": "% Reversal", "setting": "[3]", "value": 65, "unit": "%"}, {"measurement": "% Reversal", "setting": "[4]", "value": 85, "unit": "%"}]}, {"molecule": "KLDFFKR", "note": "[KLDFFKR peptide]", "values": [{"measurement": "% Reversal", "setting": "[3]", "value": 73, "unit": "%"}, {"measurement": "% Reversal", "setting": "[4]", "value": 0, "unit": "%"}]}, {"molecule": "KLGRFKR", "note": "[KLGRFKR peptide]", "values": [{"measurement": "% Reversal", "setting": "[3]", "value": 24, "unit": "%"}, {"measurement": "% Reversal", "setting": "[4]", "value": 10, "unit": "%"}]}, {"molecule": "KLGFFKG", "note": "[KLGFFKG peptide]", "values": [{"measurement": "% Reversal", "setting": "[3]", "value": 22, "unit": "%"}, {"measurement": "% Reversal", "setting": "[4]", "value": 63, "unit": "%"}]}, {"molecule": "KLGFRKR", "note": "[KLGFRKR peptide]", "values": [{"measurement": "% Reversal", "setting": "[3]", "value": 20, "unit": "%"}, {"measurement": "% Reversal", "setting": "[4]", "value": 6, "unit": "%"}]}, {"molecule": "GLGFFKR", "note": "[GLGFFKR peptide]", "values": [{"measurement": "% Reversal", "setting": "[3]", "value": 45, "unit": "%"}, {"measurement": "% Reversal", "setting": "[4]", "value": 100, "unit": "%"}]}]}
